PMC9877840

How the values were obtained:
[1] = molecular target: R. shameli ACE2‐mFC (Rhinolophus shameli); test: SPR
S309 = test: SPR

Substance	Kd [1]	Kd (S309)
SARS‐CoV‐2 RBD (from UniProt P0DTC2 319-541) (domain or fragment)	6.64 µM	
RshSTT182/200 receptor binding domain (RBD) (domain or fragment)		0.00375 µM
